Reference: the supplement of paper PMC7877785
± gives the uncertainty stated by the source.

Assay: self-splicing fitness, log relative to wild type (ln ratio); higher = more splicing; Tetrahymena group I intron in knt gene, E. coli kanamycin selection, DiMSum; sequences stand for … in CUCUCU…GGAGGGAAAAGUUAUCAGGCAUGCACCUGGUAGCUAGUCUUUAAACCAAUAGAUUGCAUCGGUUUAAAAGGCAAGACCGUCAAAUUGCGGGAAAGGGGUCAACAGCCGUUCAGUACCAAGUCUCAGGGGAAACUUUGAGAUGGCCUUGCAAAGGGUAUGGUAAUAAGCUGACGGACAUGGUCCUAACCACGCAGCCAAGUCCUAAGUCAACAGAUCUUCUGUUGAUAUGGAUGCAGUUCACAGACUAAAUGUCGGUCGGGGAAGAUGUAUUCUUCUCAUAAGAUAUAGUCGGACCUCUCCUUAAUGGGAGCUAGCGGAUGAAGUGAUGCAACACUGGAGCCGCUGGGAACUAAUUUGUAUGCGAAAGUAUAUUGAUUAGUUUUGGAGUACUCGUGGUCG
In short: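 Colonies from six replicate transformations of E. coli BL21(DE3) were pooled and amplicon-sequenced on an Illumina HiSeq 2500. The library placed an intron with all eight P1ex-region nucleotides randomised inside the knt kanamycin-resistance gene on pET-22b(+), and cells grew overnight at 37°C or 30°C on LB agar with or without 25 μg/mL kanamycin (plus 100 μg/mL carbenicillin, 50 μM IPTG, 0.2% rhamnose). Fitness is the DiMSum error-weighted combination of wild-type-normalised replicate fold changes, kanamycin versus none.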

Row | Sequence | self-splicing fitness (ln) (30 °C) | self-splicing fitness (ln) (37 °C)
1 | ACCGAGCAAUAUUACGCCUC | -2.87 ± 0.19 | -2.36 ± 0.22
2 | AGCCAGCAAUAUUACGCUAA | -2.53 ± 0.18 | -0.465 ± 0.12
3 | UUAAAGCAAUAUUACGGUCC |  | -1.2 ± 0.36
4 | UAACAGCAAUAUUACGUAGU | -3.35 ± 0.14 | -2.7 ± 0.18
5 | UGACAGCAAUAUUACGCAUU | -3.85 ± 0.18 | -2.4 ± 0.14
6 | CCUUAGCAAUAUUACGUGCG | -3.52 ± 0.21 | -2.04 ± 0.17
7 | UAUCAGCAAUAUUACGACAU | -0.823 ± 0.012 | -0.0787 ± 0.032
8 | AGGCAGCAAUAUUACGACCA | -0.404 ± 0.11 | 0.544 ± 0.17
9 | UUACAGCAAUAUUACGAAUU | -3.13 ± 0.22 | -3.1 ± 0.24
10 | UUGUAGCAAUAUUACGUCAA | -0.947 ± 0.16 | -0.538 ± 0.16
11 | AUUAAGCAAUAUUACGCAUU | -2.35 ± 0.14 | -0.664 ± 0.13
12 | GUCAAGCAAUAUUACGAGGU | -2.65 ± 0.26 | -3.03 ± 0.37
13 | AGAUAGCAAUAUUACGUCAU | -1.89 ± 0.097 | -0.716 ± 0.096
14 | UCGCAGCAAUAUUACGAACG | -2.63 ± 0.39 | -1.05 ± 0.3
15 | ACUUAGCAAUAUUACGAUAA | -2.81 ± 0.27 | -0.457 ± 0.3
16 | CCACAGCAAUAUUACGCGUU | -3.65 ± 0.092 | -2.91 ± 0.13
17 | CAUUAGCAAUAUUACGACUU | -1.99 ± 0.16 | -1.71 ± 0.18
18 | AUCAAGCAAUAUUACGGGCA | -1.42 ± 0.098 | -0.95 ± 0.098
19 | GAUCAGCAAUAUUACGAGCU | -1.42 ± 0.15 | -0.233 ± 0.15
20 | CGCAAGCAAUAUUACGAGGC | -2.71 ± 0.2 | -2.84 ± 0.29
21 | UUCGAGCAAUAUUACGCUCU | -3.38 ± 0.15 | -2.43 ± 0.14
22 | AUUUAGCAAUAUUACGCUAA | -2.13 ± 0.23 | -1.3 ± 0.31
23 | GGAGAGCAAUAUUACGCACU | -2.77 ± 0.49 | -1.94 ± 0.46
24 | CCAGAGCAAUAUUACGGACU | -3.62 ± 0.48 | -0.487 ± 0.4
25 | ACAUAGCAAUAUUACGUCUC |  | -2.01 ± 0.25

Row | Sequence | self-splicing fitness (ln) (30 °C) | self-splicing fitness (ln) (37 °C)
26 | CCUGAGCAAUAUUACGUACA | -3.13 ± 0.33 | -0.722 ± 0.3
27 | ACGGAGCAAUAUUACGGCCU | -2.12 ± 0.17 | -1.2 ± 0.21
28 | GCUUAGCAAUAUUACGUAGU | -1.2 ± 0.092 | -0.156 ± 0.11
29 | UUAGAGCAAUAUUACGAGAG | -0.212 ± 0.24 | -1.7 ± 0.24
30 | AAUUAGCAAUAUUACGAGAG | -3.43 ± 0.23 | -1.09 ± 0.18
31 | AUGAAGCAAUAUUACGGAGG | -2.82 ± 0.12 | -0.72 ± 0.12
32 | CGGCAGCAAUAUUACGAGGU | -3.26 ± 0.19 | -1.83 ± 0.15
33 | CCGUAGCAAUAUUACGUUGG | -4.39 ± 0.27 | -3.1 ± 0.19
34 | GCAGAGCAAUAUUACGUGCA | -3.08 ± 0.29 | -2.21 ± 0.23
35 | CUAAAGCAAUAUUACGUGUG | -0.323 ± 0.049 | 0.387 ± 0.06
36 | UGCCAGCAAUAUUACGAUCU | -2.48 ± 0.1 | -1.44 ± 0.1
37 | ACAAAGCAAUAUUACGGUAC | -3.33 ± 0.13 | -2.3 ± 0.15
38 | GAUCAGCAAUAUUACGAGAA | -1.89 ± 0.17 | -1.16 ± 0.14
39 | ACGUAGCAAUAUUACGUGGG | -3.6 ± 0.16 | -3.07 ± 0.18
40 | CCUCAGCAAUAUUACGCGCU | -2 ± 0.13 | -2.79 ± 0.25
41 | AAGAAGCAAUAUUACGUUAA | -2.77 ± 0.16 | -0.841 ± 0.11
42 | GGCUAGCAAUAUUACGUAUG | -2.06 ± 0.13 | -0.678 ± 0.13
43 | GAUAAGCAAUAUUACGCCCU | -0.569 ± 0.13 | 0.292 ± 0.15
44 | AUUCAGCAAUAUUACGAGGA | -2.81 ± 0.32 | -1.63 ± 0.16
45 | UAAUAGCAAUAUUACGAGUU | -2.79 ± 0.23 | -2.31 ± 0.27
46 | CCACAGCAAUAUUACGUUAC | -3.16 ± 0.21 | -2.17 ± 0.17
47 | CUUUAGCAAUAUUACGUGAA | -3.77 ± 0.35 | -2.65 ± 0.28
48 | CGGCAGCAAUAUUACGCUCG |  | -2.93 ± 0.32
49 | AAGAAGCAAUAUUACGUUUG | -2.45 ± 0.12 | -2.26 ± 0.18
50 | GAUCAGCAAUAUUACGGUGA | -0.622 ± 0.069 | -0.422 ± 0.075

Row | Sequence | self-splicing fitness (ln) (30 °C) | self-splicing fitness (ln) (37 °C)
51 | GACUAGCAAUAUUACGGUAU | -1.3 ± 0.074 | -0.543 ± 0.092
52 | UUGCAGCAAUAUUACGUAGA | -1.46 ± 0.074 | -0.271 ± 0.079
53 | AAUAAGCAAUAUUACGGAUG | -2.21 ± 0.1 | -1.39 ± 0.1
54 | AUUGAGCAAUAUUACGGUAC |  | -1.72 ± 0.31
55 | CUCAAGCAAUAUUACGGAGG | -1.53 ± 0.098 | -0.576 ± 0.087
56 | UGGCAGCAAUAUUACGUGAA | -0.78 ± 0.058 | -0.431 ± 0.084
57 | AUUGAGCAAUAUUACGACGU | -0.46 ± 0.12 | -0.115 ± 0.13
58 | CUGAAGCAAUAUUACGCAAC |  | -2.22 ± 0.35
59 | GGCGAGCAAUAUUACGAUCU | -0.834 ± 0.12 | 0.229 ± 0.14
60 | UUUAAGCAAUAUUACGAGCG | -0.94 ± 0.14 | -0.4 ± 0.17
61 | GUCGAGCAAUAUUACGGCUA | -1.78 ± 0.21 | -1.47 ± 0.18
62 | GUAAAGCAAUAUUACGAGCC | -2.51 ± 0.33 | -2.56 ± 0.26
63 | AGACAGCAAUAUUACGAUGG | -3.44 ± 0.16 | -2.21 ± 0.16
64 | ACUUAGCAAUAUUACGGUUC | -2.73 ± 0.16 | -3.35 ± 0.26
65 | GAAAAGCAAUAUUACGCCGA | -1.01 ± 0.2 | -0.824 ± 0.23
66 | GUUGAGCAAUAUUACGUUGG | -4.19 ± 0.28 | -2.01 ± 0.31
67 | AUCUAGCAAUAUUACGUGAU | -1.16 ± 0.14 | -2.25 ± 0.32
68 | UACCAGCAAUAUUACGCAAC | -2.85 ± 0.3 | -2.19 ± 0.27
69 | CCUUAGCAAUAUUACGAGUC |  | -2.7 ± 0.28
70 | GAAUAGCAAUAUUACGGGGC | -3.15 ± 0.43 | 
71 | CGCAAGCAAUAUUACGGACU | -1.39 ± 0.08 | 0.158 ± 0.082
72 | GCACAGCAAUAUUACGCCUC | -0.836 ± 0.065 | -0.337 ± 0.074
73 | GAUGAGCAAUAUUACGAUUU | -1.07 ± 0.14 | -2.1 ± 0.18
74 | GGCAAGCAAUAUUACGAAAG | -2.97 ± 0.28 | 
75 | GUCCAGCAAUAUUACGUCCG | -4.42 ± 0.29 | -0.283 ± 0.22

Row | Sequence | self-splicing fitness (ln) (30 °C) | self-splicing fitness (ln) (37 °C)
76 | CCGAAGCAAUAUUACGAAAA | -1.87 ± 0.26 | -1.09 ± 0.27
77 | AAUAAGCAAUAUUACGCCCC | 0.198 ± 0.2 | -0.311 ± 0.24
78 | GGCUAGCAAUAUUACGAUCG | -0.651 ± 0.12 | -0.58 ± 0.15
79 | UUCGAGCAAUAUUACGGAAG | -2.42 ± 0.22 | -2.12 ± 0.4
80 | GGUAAGCAAUAUUACGCUCA | -0.326 ± 0.26 | -0.105 ± 0.48
81 | AGAUAGCAAUAUUACGUGAU | -1.92 ± 0.11 | -0.886 ± 0.11
82 | CGAGAGCAAUAUUACGUUUG | -4.63 ± 0.28 | -2.12 ± 0.22
83 | ACGGAGCAAUAUUACGUAGA | -4.18 ± 0.31 | -2.41 ± 0.24
84 | AUAGAGCAAUAUUACGCCUC | -1.52 ± 0.24 | -0.831 ± 0.5
85 | UGAGAGCAAUAUUACGACUC | -2.96 ± 0.47 | -2.73 ± 0.45
86 | CGAAAGCAAUAUUACGAUAU | -3.42 ± 0.28 | -1.27 ± 0.2
87 | AAUUAGCAAUAUUACGAAAC |  | -0.761 ± 0.4
88 | GUAUAGCAAUAUUACGGCCG | -2.76 ± 0.21 | -1.09 ± 0.17
89 | CGUAAGCAAUAUUACGCAGA | -2.28 ± 0.27 | -2.67 ± 0.38
90 | GAUUAGCAAUAUUACGGAAC | -2.84 ± 0.36 | -1.7 ± 0.33
91 | GAUUAGCAAUAUUACGGUGA | -1.31 ± 0.11 | -1.24 ± 0.098
92 | AUUCAGCAAUAUUACGGCAC | -0.847 ± 0.074 | -0.407 ± 0.096
93 | ACCCAGCAAUAUUACGUCCU | -0.73 ± 0.075 | -0.51 ± 0.089
94 | ACAUAGCAAUAUUACGACCA | -0.589 ± 0.12 | 0.121 ± 0.14
95 | GCAGAGCAAUAUUACGGCGU | -0.715 ± 0.099 | -0.614 ± 0.11
96 | CGUCAGCAAUAUUACGGAUC | -1.12 ± 0.051 | -0.0121 ± 0.069
97 | GACUAGCAAUAUUACGUGAG | -2.07 ± 0.1 | -1.54 ± 0.14
98 | UCCAAGCAAUAUUACGACUA | -1.2 ± 0.12 | 0.12 ± 0.1
